Laboratory results taken from article PMC6751697.

Molecular target: fluorescein-labeled 16-mer Pogo Ligase peptide (FAM-PL)
Experiment: fluorescence polarisation

Chain of recombinant (His)6-PCNA protein (proliferating cell nuclear antigen) (P12004 whole entry): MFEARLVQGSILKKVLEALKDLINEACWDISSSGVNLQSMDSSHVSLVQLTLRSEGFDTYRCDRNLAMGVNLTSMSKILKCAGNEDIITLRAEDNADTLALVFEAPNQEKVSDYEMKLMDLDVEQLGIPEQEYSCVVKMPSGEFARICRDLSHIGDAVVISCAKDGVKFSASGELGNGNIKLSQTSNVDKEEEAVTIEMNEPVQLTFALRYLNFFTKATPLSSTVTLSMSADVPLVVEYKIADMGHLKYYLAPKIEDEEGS

recombinant (His)6-PCNA protein (proliferating cell nuclear antigen) (from UniProt P12004 1-261) (natural protein)
percent of peptide bound (5 nM FAM-PL, 1 uM PCNA): > 80%
